Biological target: casposon-encoded Aciduliprofundum boonei T469 Cas1 (Aciduliprofundum boonei T469)
Test: SEC; Superdex 200 16/60, step of the purification after TEV cleavage; data not shown

stoichiometry N: 2
Substance: casposon-encoded Aciduliprofundum boonei T469 Cas1 (enzyme)
